Series [1] can be described thus: Thermal forced aggregation (SEC). Particulars: Table 11, 24 hours, PBS. It counts as physicochemical. The method, then: To assess the aggregation propensity of variant CD80-Fc fusion proteins, 1 mg/ml of CD80-Fc fusion protein was incubated in PBS at increasing temperatures for 24 hours. The samples were analyzed by SEC on an Agilent 1100 (Agilent Technologies, Germany) HPLC system using a YMC-Pack Diol-200 (YMC, Germany) analytical size exclusion chromatography column and PBS supplemented to 400 mM NaCl as running buffer. % aggregation was calculated from the loss of intact peak area. […] ND=Not Determined.

Series [2] concerns human peripheral blood mononuclear cells (PBMCs). Nature of the series: Human PBMC IL-2 production assay with plate-bound anti-CD3. It counts as cell-based. Here is the method: The ability of the variant CD80-Fc fusion proteins to promote IL-2 production in the context of anti-CD3 (to stimulate T cell receptor signaling) in human peripheral blood mononuclear cells (PBMCs) was tested. To bind anti-CD3 antibody on the plate, the anti-human-CD3 (clone HIT3a, BD Pharmingen) was incubated in 96-well plates at 4° C. overnight at 1 μg/ml unless otherwise noted. Human PBMCs were isolated from freshly collected human whole blood using Ficoll-Paque Plus. Human PBMCs (100,000 per well) were incubated with plate-bound anti-CD3 and the indicated concentrations of soluble CD80-Fc fusion protein in RPMI+10% HI-FBS, pen/strep, sodium pyruvate and non-essential amino acids. After 48 hours incubation, supernatants were collected and IL-2 measured by the Quantikine human IL-2 ELISA kit from R&D.
Additional CD80-Fc fusion proteins were tested in the same PBMC assay, at the concentration of anti-human-CD3 (clone HIT3a, BD Pharmingen) noted.

The subject of series [3] is peripheral blood mononuclear cells (PBMC). Nature of the series: RESTORE cytokine release assay in absence of TCR stimulation. Particulars: Table 20. It counts as cell-based, human. Set-up: IFNγ: unit not given beside the values. Here is the method: The ability of variant CD80-Fc fusion proteins to promote cytokine release in the absence of TCR stimulation was assessed in the RESTORE (RESetting T cells to Original Reactivity) assay (Römer et al, Blood, 2011). Freshly isolated peripheral blood mononuclear cells (PBMC) from whole blood of several healthy donors were cultured for 48 hours at […] within RPMI1640 media supplemented with 10% autologous plasma, 10 mM HEPES, 1× GlutaMAX, 1× PenStrep, beta2-mercaptoethanol, NEAA and sodium pyruvate. Following the 48-hour incubation, PBMC were pelleted and resuspended at a final concentration of 10^6/ml with indicated soluble drug. Treatment was allowed for 48 hours then supernatant was harvested and assessed in IL-2 and IFNγ ELISA according to manufacturer's protocol (BioLegend).
Positive controls included CD28 superagonist anti-CD28 clone TGN1412 as IgG1 and IgG4 isotypes and anti-CD3. […] Values shown are the average of 3 technical replicates. D=Donor.

Series [4] has as its system CT26 murine colorectal carcinoma tumor cells. Nature of the series: CT26 murine colorectal carcinoma model. It counts as in vivo, mouse. Particulars: for Day 10 tumor volume: Days 0 and 3; for % tumor growth inhibition: Day 10. The method, then:
CT26 murine colorectal carcinoma tumor cells (1×10^6) were subcutaneously implanted in the hind flank of female Balb/c mice. When tumors reached ˜100 mm3 (Day 8), mice were randomized. PBS vehicle control or variant CD80-Fc fusion proteins were dosed intravenously at 0.1 and 1.0 mg/kg on Days 0 and 3. Tumor volume was determined by caliper measurements obtained in 2 dimensions and calculated as width^2×length/2. Error bars are depicted as ±SEM.
IFNγ ELIspot was used to measure tumor-reactive T cells in the spleen in mice treated with CD80-Fc fusion proteins at a 1 mg/kg dose.
Cytotoxic CD8^+ T cells are responsible for killing cancer cells and the measurement of CD8^+ T cells that have infiltrated tumors commonly correlates with efficacy for immune-oncology therapies. For all in vivo studies, tumors were collected ˜1 week after the first dose and dissociated by mincing, followed by incubation in an enzymatic digestion cocktail and homogenization. The resulting cell suspension was filtered and washed, and single cells were stained with antibodies to CD45, CD8, and a viability dye to detect tumor-infiltrating lymphocytes (TILs) by flow cytometry. Data were acquired on a BD LSRFortessa flow cytometer or a Cytek Aurora spectral flow cytometer. Table 31 and FIG. 18 show the amount of tumor-infiltrating CD8+ T cells expressed as a percentage of total immune cells (CD45+). Each value is the average of n=4 mice per group. Treatment with all variant CD80-Fc fusion proteins led to increase in CD8+ TILs in various tumor models.

The subject of series [5] is B16F10 murine melanoma cells. The series can be described thus: B16F10 melanoma model, combination with αPD1 antibody. Format: in vivo, mouse. Particulars: CD80-D90Q-E23C-A26C-Fc 3 mg/kg and/or αPD1 Ab 10 mg/kg. The method, then:
B16F10 murine melanoma cells (0.5 million) were subcutaneously implanted in the hind flank of female C57BL/6J mice. When tumors reached ˜100 mm3, mice were randomized and dosed with PBS vehicle control, 3 mg/kg CD80-D90Q-E23C-A26C-Fc, and or 10 mg/kg murine αPD1 antibody. CD80-D90Q-E23C-A26C-Fc was dosed on Days 0 and 3, αPD1 antibody was dosed on Days 0, 3 and 6. Tumor volume was determined by caliper measurements obtained in 2 dimensions and calculated as width^2×length/2. Error bars are depicted as ±SEM

Series [6] is described as follows: Pharmacokinetics in huFcRn transgenic mice. Particulars: 0.1 mg/kg IV.
Method: PK of CD80-Fc fusion proteins was also assessed in transgenic mice expressing the human neonatal Fc receptor (huFcRn) a-chain transgene under the control of its natural human promoter. Female mice were dosed intravenously with CD80-Fc fusion proteins at 0.1 mg/kg, and blood was collected at the timepoints indicated on the graph. Levels of CD80-Fc in mouse plasma were measured as described above.
A short description of series [7]: Thermal stability by Differential Scanning calorimetry (DSC). It counts as physicochemical. Particulars: PBS. The method, then: There is a correlation between the thermal stability of a protein with the overall stability of the protein. Enhanced thermal stability often provides improved manufacturability and longer shelf life/stability. Thermal stability of variant CD80-Fc fusion proteins was assessed by Differential Scanning calorimetry (DSC). Variant CD80-Fc fusion proteins were analyzed using a MicroCal VP-DSC instrument. […] Tables 8-10 show the first thermal transition temperature (Tm1) of CD80-Fc fusion proteins and the enhanced thermal stability of variant CD80-Fc fusion proteins compared to CD80-WT-Fc fusion proteins.

From patent US20240209061A1, “FUSION PROTEINS AND USES THEREOF” (Pfizer Inc., priority 2020, published 2024) come the findings set out here.

“CD80-D90Q-E23C-A26C-Fc: disulfide stabilized variant CD80-Fc fusion protein (D90Q, E23C, A26C)”: the “% aggregation” value in series [1] (40° C.) amounted to 0.0%; in series [1] (45.3° C.), 0.1%; in series [1] (49.4° C.) it was 0.1%; in series [1] (54.9° C.) it was 0.5%; in series [1] (59.1° C.), 26.2%; in series [1] (64° C.), 68.8%. Also, the half-maximal effective concentration (EC50) in series [2] (average of 5 PBMC donors, 1 μg/ml anti-CD3, 48 hours) was determined as 24.2 ± 10 nM. For the same substance, the IFNγ in series [3] (D222, 1 μg/ml) was 4.0; in series [3] (D222, 10 μg/ml), 4.7; in series [3] (D281, 1 μg/ml), 5.0; in series [3] (D281, 10 μg/ml), 6.3; in series [3] (D462, 1 μg/ml), 7.3; in series [3] (D462, 10 μg/ml) it was 6.0. Moreover, the IFNγ in series [3] (D547, 1 μg/ml) is 3.3; in series [3] (D547, 10 μg/ml), 5.0. In addition, the IL-2 in series [3] (D222, 1 μg/ml) is given as 7.0; in series [3] (D222, 10 μg/ml), 11.0; in series [3] (D281, 1 μg/ml) it was 2.0; in series [3] (D281, 10 μg/ml), 2.0; in series [3] (D462, 1 μg/ml) it was 1.7; in series [3] (D462, 10 μg/ml) it was 2.0. Further, the IL-2 in series [3] (D547, 1 μg/ml) is 4.3; in series [3] (D547, 10 μg/ml) it was 12.0. Besides, the “Number of tumor regressions” value in series [4] (0.1 mg/kg) is recorded as 2/10; in series [4] (1 mg/kg), 9/10. Also, the “Day 10 tumor volume” value in series [4] (0.1 mg/kg IV) was 388.9 mm^3; in series [4] (1 mg/kg IV), 197.8 mm^3; in series [5] it was 1208.8 mm^3. Further, the results for the “% tumor growth inhibition” value in series [4] (0.1 mg/kg), in series [4] (1 mg/kg) and in series [5] (Day 10) were 67.53%, 83.49% and 26.3%, respectively. Moreover, in series [4] (1 mg/kg, average of n = 4 mice), the “# IFNγ-producing spots (tumor-reactive T cells in spleen)” value is on record as 523.1875. Moreover, the area under the curve (AUC) in series [6] came to 88 µg·h/mL. Also, in series [6], the CL was found to be 15.8 mL/day/kg. In series [6], this substance came in with a T1/2 of 148 h. For the same substance, the Vdss in series [6] is 131 mL/kg. Also, the Cmax in series [6] (average of 3 animals) is 1.4 µg/mL.
Consider “CD80-V22F-T28V-T57V-Fc: non-cysteine stabilized variant CD80-Fc fusion protein”, for which the “DSC Tm1” value in series [7] amounted to 64 °C. This substance also had an EC50 in series [2] (Donor 418, 0.3 ug/ml anti-CD3) of 5.13 nM.
